This is an account of results in the DeepSol protein solubility set.

The series in a line: soluble on expression in E. coli; label from the status in PepcDB or PDB records.
As for “MSLRLSKTLCMAILAGSTLLAPNALMAMGGPSRVKIDWQIQGQMGMIKMNPYGLSPLTAIIMNNGYVLSDIKKNQMVKLFLNNVNSKMAKTYGGIPIFGLYPSYSKGKVSYTKTANGKSQKVIDEIYKITTPWASIEPSGRTDQRGTLFENVKVLKMDPKFSDRLYLVNNAPGKQSGKDSQSVWNNLVGGAMEWDENSNVFIIDTKGEIRWYYDNNKLMNWGNIYNRGIMISFRQNKDGALTWGFGQRYVKYDCLGREIFNRKLPAVYIDFSHAMDNMQNGHYFFNKYFASLRPDSKHVRTVCDTIIEVDENGNVVDDWRLYKILDPYRSTIIKTLDQSAVCLNIDASKVGKTLSDEELAKMDESDKFGDIAGIGRNWAHAYKGWNKEFQKYLLQPVDKNGNEWFYPVTSLTQYEPDKDSIMVYSATLEWLLILVKVSLGEPKPKIDEFNWGAKEPSVQIQFSGSGTDYQAMPFSVDQAFNPKEGHHHHHH”, the “soluble on expression in E. coli” value was “not soluble”. For “MKCKFCSREAYIKIHYPKMYLCEEHFKEYFERKVSRTIERYKLLTKDERILVAVSGGKDSAVTAYVLKKLGYNIECLHINLGISGYSEKSEEYAKKQCKLIGAPLHIVRIKEILGYGIGEVKTRRPPCSYCGLTKRYIMNKFAYDNGFDAIATGHNLDDEASFLLNNILHWNTEYLAKGGPILPQQGKFIKKVKPLYEVTEREVVAYALAVGLEYIVEECPYARGATTLDMKGVLNELEEKRPGTKFNFVRGYLKKKKLFEPEIKEKEIKECKICRMPSSGDICAFCKFWGLKKEINFKVSSTDEEPFGP”, the “soluble on expression in E. coli” value is “soluble”. Take “LSSPQNILVCVTQQITCERLILKAAELRNELKGELFVIHVAKNEWNFLDNIKEGEALEYLFKISKSVGANLSVLKSDDIVQTIVNFAKENKITHIVMGESPNDHKENNFYNELKRLLSNVEILVIPQAGI”: the “soluble on expression in E. coli” value was “not soluble”.

Regarding “MSLELPILPTSVIGSYPKPRWLLRMYKLRELGKIPEEDFKEAVRDASISVLREHERAGIDIPWDGEMGRSEMTEYFTSKIKGFKFYGPVRVWGNAYFNKAAAVDKLEYEEPLVLDEFLWVKENTTREIVKIPITGPYTIAEWSFNEYYPDKESFVMDLAEIINKELKVLEKHGAKFVQLDEPAMLNHPSEVPLAVDAINRAVKGIKMKVGLHVCYSNYNLLADYFDEIKVTQFALEFANRNFRDMDFLKKLSNKELGFGVVDVHNPRVESVEEIRQAIKKVFTYLEPEWVYINPDCGLKLLDRKIAYQKLVNMVQAVRGVRKELEKEGKTTIEFRTLKDIEGHHHHHH”, the “soluble on expression in E. coli” value was “soluble”. With “MSSRIRINTKSLLVQPGYSGSKMRDRLFFLLSKYGIRPRDSIGQHFLIIEDVIEKAIETANVNENDVILEVGPGLGFLTDELAKRAKKVYTIEIDQKIIEILKKEYSWNNVKIIQGDAVRVEWPKFNKVVSNIPYKISSPFTFKLLKTDFERAVVMYQLEFALRMVAKPGSRNYSRLSLMAQALGNVEIVMKIGKGAFYPRPKVDSALVLIEPRKDKIVLNENLVKALFQHRRKTVPRALKDSIHMLGVSKDEIRGIINNVPHSNKRVFQLYPEEVKDIEEYLKKHGIIS”, the “soluble on expression in E. coli” value is reported as “soluble”.

For the sequence “MGSDKIHHHHHHMDFIEVYPNAIPDELCDRLIETVNTHPGVIDGITGHGVDLEKKISRDITMDNFQELLPLRNELLNYTLKHSAQYFEKYALGLMGAVAVTLADEQGKPQTLTPDNFDTLGRHRVQPLVQYLYRSGTINIQHYQQGKGGYPHWHSEQFPQMGHNEALHRVVLYMFYLNDVEEGGETEFFYQQRKIKPKKGTMVIAPAGFTHSHRGNMPISGDKYIATSWVMFNRAEKLYAPVG”, the “soluble on expression in E. coli” value is given as “not soluble”. To “MFQASMRSPNMEPFKQQKVEDFYDIGEELGSGQFAIVKKCREKSTGLEYAAKFIKKRQSRASRRGVSREEIEREVSILRQVLHHNVITLHDVYENRTDVVLILELVSGGELFDFLAQKESLSEEEATSFIKQILDGVNYLHTKKIAHFDLKPENIMLLDKNIPIPHIKLIDFGLAHEIEDGVEFKNIFGTPEFVAPEIVNYEPLGLEADMWSIGVITYILLSGASPFLGDTKQETLANITAVSYDFDEEFFSQTSELAKDFIRKLLVKETRKRLTIQEALRHPWITPVDNQQAMVRRESVVNLENFRKQYVRRRWKLSFSIVSLCNHLTRSLMKKVHLRPDEDLRNCESDTEEDIARRKALHPRRRSSTS” belongs “soluble”; to “GAACNVLFINSVEMESLTGPQAISKAVAETLVADPTPTATIVHFKVSAQGITLTDNQRKLFFRRHYPLNTVTFCDLDPQERKWTKTDGSGPAKLFGFVARKQGSTTDNVCHLFAELDPDQPAAAIVNFVSRVML”, “soluble”; to “MGSDKIHHHHHHAAGQPRLVKSLVPDMPSQAPDYFCTWNLQGYVASYKSTELTRAAMTEDYLFGDGLYQNWVDCYPAIRKDLYFVMDDSWDIPKDVNDSPNLYLGCVELSSDRFPSFRGDAVERLKQLSEQIKSKGWKGVGGWICAQKAETHAAIPEEEYWKQRIKAANAAGFDYWKVDWGKEDRNGEWRRKLTAIGKRYAPHLYIEHALRNEFIEFSDVFRTYDVENITAQPITIRRICDLLPYKTVEGAKGIINCEDEPYIAVGLGCAIGVMRHPFAETLPDGAQDFVFPPVGRDIKRRLDEVVRGVRWHRIAEPFAVGYGTFAIDSVKLTDHWILQENETWNKGRTVGADVTADAPARVARNMKLPEVSGAPLSVCPFVLASRYPNGAVAVSTIGRNVGREYVTEKVAVSISVDRWDIPIGLFGYFKEVTMVFPSPLKTGKHTVFAQDLAGENPVDITSNVVIKDNRLIIPGEVISRVGLMNASEGDCSDPGMVIRVM”, “not soluble”. On to “MGSDKIHHHHHHMEDREQLYTLLAQKDWDAIGKIIYKNKKAKKQDPFLTQVTTFFEAEFFEFTRPLPPAERAKQFEHTNLIIELGQHGFSQAFVDNFVDERLKLMQETQHSALLNYAQTYQHRPLAQRIIASFINTKPEAVAASLRENMTIRATDVQPGKAKTIRLFKSKQEEHFYEAVRRVFPTYHPYPNVALSCVLDYQAIKDSLSEQAKSYFFKAIIDSVVFDVGSGYEPKYFIELDSNFHDAAQAQANDKMKDDIFRAANTKLIRIRPLNSKASSIEEFEKLVREVMRQL”, for which the “soluble on expression in E. coli” value is recorded as “not soluble”. Consider “MALPRITQKEMTEREQRELKTLLDRARIAHGRPLTNSETNSVKKEYIDKLMALREAEAKKARQLKKKQAYKPDTEASFSWSANTPTRGRR”, for which the “soluble on expression in E. coli” value is recorded as “not soluble”. Take “MLSLKLVSQLFKQSLASGNMAIVNTAGLKYFAPPIKYQNVEQPERPKLRVIERQPQLPPNIRPPKMQKRLRYMRGPEMVHNTLLHKQYAIVATGGGRLRWGHYEMMRLTIGRKMNVNTMFATWRVPAPWQPITKKGQGQRMGGGKGAIDHYVTPIKAGRVIVEIAGKCEFVEVKQFLQQVANQLPFQATVVSQEMLDEQRVAEEEQTRQNENPFTMKYVIQNNLSGCHRWLSPVDHKWFGKHLLEHHHHHH”: the “soluble on expression in E. coli” value was “not soluble”. As for “MEEKKALRNRIKKLLRSQPEQQRKEGSQRVADILFSLPEWNEAHAIGITISLPHEVQTELIISRGWEEGKQIAVPRVKKGTTQMTFYEIHSFSVLEDTFFGLREPKPSECRQIDGQELDLLLVPGVAFDQKGNRLGYGGGYYDRFLHSYKGKTIALAYSQQLVESVPTDERDERVQMIVTERGVYRLEHHHHHH”, the “soluble on expression in E. coli” value is “soluble”. Consider “SNAMIAKEFETFLLGQEETFLTPAKNLAVLIDTHNADHATLLLSQMTYTRVPVVTDEKQFVGTIGLRDIMAYQMEHDLSQEIMADTDIVHMTKTDVAVVSPDFTITEVLHKLVDESFLPVVDAEGIFQGIITRKSILKAVNALLHDFSKEYEIRCQ”, for which the “soluble on expression in E. coli” value is recorded as “soluble”. For “MSLIPIRCHAVSGVALSTVQGETRLLMMKRVKGGFWCHVAGTVEAGETGWQTIVREFREETGIVVHELYNGQYLEQFYEHATNTVCLVPVFVVYCPPTQAVTLNHEHTEYRWSTLAEAKALAGFPGQQALYDHLWHYFVENSPSALMRVAMTEGHHHHHH”, the “soluble on expression in E. coli” value was “not soluble”.
